Test results as given in US9175053B2, “Chemical preparation of ubiquitin thioesters and modifications thereof” (BEN-GURION UNIVERSITY OF THE NEGEV RESEARCH AND DEVELOPMENT …, priority 2010, dated 2015).
Entries after “also recorded” stand apart in the source; their conditions may differ.

Target: T1, recombinant human ubiquitin C-terminal hydrolase L3 (UCH-L3) (Homo sapiens, UniProt P15374)
T1 construct: purchased Aldrich
T1 sequence (P15374 1-230): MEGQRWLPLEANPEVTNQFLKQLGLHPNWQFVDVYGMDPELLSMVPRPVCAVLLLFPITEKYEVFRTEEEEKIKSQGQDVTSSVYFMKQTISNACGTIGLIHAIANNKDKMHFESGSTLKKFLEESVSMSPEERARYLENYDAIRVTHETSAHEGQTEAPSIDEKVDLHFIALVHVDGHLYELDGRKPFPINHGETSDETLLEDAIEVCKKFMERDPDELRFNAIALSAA
Experiment: Enzymatic cleavage of isopeptide by ubiquitin C-terminal hydrolase UCH-L3
Assay type: biochemical
Settings: ~100 μM peptide, 12 hours at 37° C., Tris/NaCl/DTT buffer
Experimental: Purified peptide 8 was dissolved in 482 μL of assay buffer (50 mM Tris, 150 mM NaCl, 1 mM DTT, pH 7.5) to a final concentration of ˜100 μM and reacted with recombinant human ubiquitin C-terminal hydrolase L3 (UCH-L3, Aldrich). 10 μg of UCH-L3 in 15.5 μL of assay buffer containing 50 mM Tris, 150 mM NaCl, 12 mM DTT, pH 8.0 was incubated for 20 minutes at 25° C. To the reduced UCH-L3 was then added 8 in 187 μL. […] The reaction was analyzed using C-4 analytical RP-HPLC employing a gradient of 10-60% B for 30 minutes, in order to identify the hydrolysis.

8: α-synuclein(1-17) model peptide ubiquitylated with synthetic Ub-SR via mercaptolysine, then desulfurized (Scheme 6) [Peptide 8]
hydrolysis of the ubiquitylated peptide by UCH-L3 (RP-HPLC): UCH-L3 substrate; also recorded: complete hydrolysis
